Results on 32 sequences are retold here after the supplement of paper PMC9170038.

For this data set, the system named is MS2 coat protein. Nature of the data set: apparent KD of MS2 coat protein; designed switch direction (-1 OFF switch, 1 ON switch): -1; higher = weaker reporter binding. The essentials: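 Designed RNA switches with common flanks were made on Illumina chips by stalled E. coli RNA polymerase. Titration with SNAP-549-labelled MS2 coat protein doubled from 0.7 or 1.5 nM up to 3 µM. Apparent KD is each design's median over clusters after curve-fitting normalised fluorescence.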

Setting [1] is: Eterna round: R95, input ligand: microRNA oligo, concentration not stated.
Setting [2] is: input ligand: microRNA oligo, concentration not stated.

Consider “AAUUUGCAAGCGAGAUCCCACAUGAGGAUCACCCAUGUGCUCGUCUUAUAAGGUACUGUGACGAGAGUCACGGUACC [Mat - Sensor, turn-off var - Eli Mod - D91] (Eterna round: R97, puzzle: Sensor, turn-off variant 1)”, for which the “apparent KD of MS2 coat protein” value by setting is: (input ligand: FMN 200 uM) 15.6 nM; (input ligand: none) 12.1 nM.

Regarding “GAUUAACAUGAGGAUCACCCAUGUGAGGAUAUUGACUUGCUCACUUUCCCAUUAGAGUCGAGAAGGCGCAUCUU [1986#18] (Eterna round: R97, puzzle: Exclusion 1)”, the “apparent KD of MS2 coat protein” value (input ligand: FMN 200 uM) amounted to 25.2 nM and the “apparent KD of MS2 coat protein” value (input ligand: none) is 28.6 nM.

With “AAAUAACAAGCAAGAUCCUACAUGAGGAUCACCCAUGUGCUCGUCUUGUAAAGUACUAUCACGAAAGUGAUAGUACA [Sensor 3, v1 - 12] (puzzle: Sensor v3, turn-off variant 1)”, the “apparent KD of MS2 coat protein” value runs as follows: (Eterna round: R95, input ligand: FMN 200 uM) 23.4 nM; under setting [1], 219 nM; (Eterna round: R95, input ligand: none) 23 nM. As to “AAAUAGCGAGGAUAUACUGUAUACGAAAGUAUACGCAUGGCACAUGAGGAUCACCCAUGUAGAAGGCGCUAUAA (Eterna round: R97, puzzle: Exclusion 2)”, the “apparent KD of MS2 coat protein” value was found to be 43.4 nM (input ligand: FMN 200 uM) and 22.3 nM (input ligand: none). The matching figures for “UGAAAGUGAGGAUAUCCAAUAUAUGACAUGAGGAUCACCCAUGUUUCCACUCGUACCUCCGGAGAAGGCACAAGGU [Ex5 #57] (Eterna round: R97, puzzle: Exclusion 5)”: 25.5 nM and 29.4 nM.

As to “AAUAACAAGCAGAUCCUCCACAUGAGGAUCACCCAUGUGCUCGUCUUGUAAAGUACUAUCACGAAAGUGAUAGUACA (Eterna round: R97, puzzle: Sensor, turn-off variant 1)”, the “apparent KD of MS2 coat protein” value runs as follows: (input ligand: FMN 200 uM) 724 nM; (input ligand: none) 718 nM. Turning to “GAUCAACAUGAGGAUCACCCAUGUGAGGAUAUGUAUCAUAGAUCUUCGGAUCUAUGAUACAGAAGGCAUGUGAA [Ex1-3: 101] (puzzle: Exclusion 1)”, under setting [1], the “apparent KD of MS2 coat protein” value amounted to 67.8 nM. On to “CUUUAGUGAGGAUAUUAGUAGUAAUACAAUAGUAUUACUACUGAGAAGGCACAUGAGGAUCACCCAUGUUCCUC [Mat - Exclusion 4 - Mod of Omei - D79] (Eterna round: R96, puzzle: Exclusion 4)”, for which the “apparent KD of MS2 coat protein” value was determined as 303 nM (input ligand: FMN 200 uM), 25 nM under setting [2] and 28.5 nM (input ligand: none). Take “ACAUGAGGAUCACCCAUGUGACAAUAAUGGCUGAUACAGAGACAGGAUAUAGGUGAAUAUCUAACCUAGAAGGGUCAUGACUGG [Deportation 71 - Jieux - Exclusion NG 3] (Eterna round: R96, puzzle: Exclusion NG 3)”: the “apparent KD of MS2 coat protein” value is, setting by setting: (input ligand: FMN 200 uM) 34.8 nM; under setting [2], 33 nM; (input ligand: none) 54 nM. For the sequence “CCUCAUAUUUAGGAUAUGAUUGGUAAUUAUUAGUUAGAAGGAGAUACAUGAGGAUCACCCAUGUAAUAUUUAAA [-11.7, -11.3 kcal, 36% A] (Eterna round: R97, puzzle: Exclusion 6)”, the “apparent KD of MS2 coat protein” value is, setting by setting: (input ligand: FMN 200 uM) 20.3 nM; (input ligand: none) 19.5 nM. In the case of “GGUGCCCGACAAGGAUAUAAGAUACAGAAAACCUUAGAAGGUGUCACAUGAGGAUCACCCAUGUGGUCCGGCACCAAUAACUCC [Inedraor] (Eterna round: R96, puzzle: Exclusion NG 1)”, the “apparent KD of MS2 coat protein” value (input ligand: FMN 200 uM) came to 58.9 nM, the “apparent KD of MS2 coat protein” value under setting [2] was 18.1 nM and the “apparent KD of MS2 coat protein” value (input ligand: none) worked out at 41.9 nM. For the sequence “GUGGUACAUGAGGAUCACCCAUGUCAGGAUAUCGUGUGUUUUUUUUCGGCCGCGCGCGCGAGAAGGGACGUCUU (puzzle: Exclusion 1)”, the “apparent KD of MS2 coat protein” value under setting [1] came to 16.8 nM. For the sequence “CCGGUGUGAGGAUAUCGUGGCUUGCAGGAAACGCUAAGUCGCGAGAAGGCACAUGAGGAUCACCCAUGUGUAUC [Eternabot (L2) Solution 54] (Eterna round: R97, puzzle: Exclusion 4)”, the “apparent KD of MS2 coat protein” value (input ligand: FMN 200 uM) turned out to be 62.8 nM and the “apparent KD of MS2 coat protein” value (input ligand: none) is 24.7 nM.

For the sequence “UAUUAGUGAGGAUAUGGUAAAGAUAAGAUGAUGAAAGAACUCCAGAAGGCACAUGAGGAUCACCCAUGUAGUAG [JL-ex4-2.09 Jieux mod] (puzzle: Exclusion 4)”, the “apparent KD of MS2 coat protein” value under setting [1] was 19.5 nM. On to “AAAUUCUGAGGAUAUCGAUGUUUGUACAUGAGGAUCACCCAUGUCCUUUUUAUUUUUUCUCGAGAAGGCAGUGUAU [JR_E5_Sub100] (puzzle: Exclusion 5)”, for which the “apparent KD of MS2 coat protein” value under setting [1] was determined as 34.2 nM. For “AAAUUCUGAGGAUAUCGAUGUUUGUACAUGAGGAUCACCCAUGUCCUUUUUAUUUUUUCUCGAGAAGGCAGUGUAU [JR_E5_Sub100] (Eterna round: R96, puzzle: Exclusion 5)”, the “apparent KD of MS2 coat protein” value (input ligand: FMN 200 uM) is 48.1 nM, the “apparent KD of MS2 coat protein” value under setting [2] worked out at 32 nM and the “apparent KD of MS2 coat protein” value (input ligand: none) was found to be 40.7 nM.

Turning to “GGCGGACAUGAGGAUCACCCAUGUCAGGAUAUGGUGCGAUCGUCGAUAGACGAUAGCACCAGAAGGGACACGCC [Mat - Exclusion 1 - Eli Mod - D1] (Eterna round: R97, puzzle: Exclusion 1)”, the “apparent KD of MS2 coat protein” value reads like this: (input ligand: FMN 200 uM) 22.2 nM; (input ligand: none) 19.8 nM. In the case of “CGGUGUAGAGGAUAUACGUGGAUGUAAGUUCAUGAUAUUUUACAUGAGGAUCACCCAUGUAGAAGGCUAUAGCG [JR_Ex2_Sub079] (Eterna round: R97, puzzle: Exclusion 2)”, the “apparent KD of MS2 coat protein” value (input ligand: FMN 200 uM) came to 36.2 nM and the “apparent KD of MS2 coat protein” value (input ligand: none) was 351 nM. Turning to “UUCUUUAUACGAGGAUAUCAUACAUGAGGAUCACCCAUGUGGCUGGGUCUGUUUUUAUAUAAUAUUGAGAAGGCGUUUUUCUAU [JR_ExcNG2_Sub073] (Eterna round: R96, puzzle: Exclusion NG 2)”, the “apparent KD of MS2 coat protein” value runs as follows: (input ligand: FMN 200 uM) 291 nM; under setting [2], 79.8 nM; (input ligand: none) 78.9 nM.

For the sequence “AAUUAUUGAUGAGGAUAUUGUGGUGAAACACCACAAGAAGGCAUUAUACACAUGAGGAUCACCCAUGUGAGCCUGAUGCAUAUA [Ex NG1 #56] (Eterna round: R96, puzzle: Exclusion NG 1)”, under setting [2], the “apparent KD of MS2 coat protein” value was determined as 13.2 nM.

Consider “AGUGCGUAUGUGAGGAUAUGCUGGUCCUUGGAUCAGCAGAAGGCACAUGAGGAUCACCCAUGUGGUGUCGUACA [salish99_Bmod_Ex4_006] (puzzle: Brourd's mod of Exclusion 4)”, for which the “apparent KD of MS2 coat protein” value under setting [1] came to 320 nM. “UUUUUGUCAGGAUAUGACUAGAUGCACGUUAGUGCAUCUACUUAGAAGGGACAUGAGGAUCACCCAUGUAUUCC [Bring Us a Shrubbery-12] (puzzle: Exclusion 4)”: under setting [1], the “apparent KD of MS2 coat protein” value was determined as 27.3 nM. Regarding “UAAAAGUCAGGAUAUACAUGAGGAUCACCCAUGUAAAAUUUUAAUUUAAUUUUAAGGUGUAGAAGGGACAAUUU [Ex3 #1] (Eterna round: R97, puzzle: Exclusion 3)”, the “apparent KD of MS2 coat protein” value turned out to be 32.5 nM (input ligand: FMN 200 uM) and 34.9 nM (input ligand: none). The matching figures for “AGCUAGUCAGGAUAUUCUAAUGAUUACAUGAGGAUCACCCAUGUGAAUGGACAAGGGUGUGAAGAAGGGACUAGCG [Omei Ex5 A10] (Eterna round: R97, puzzle: Exclusion 5)”: 426 nM and 4030 nM.

Consider “CAGUACUGAGGAUAUACAUGAGGAUCACCCAUGUGUGUGAGAUUUGGAUGAAAGUUAUGUAGAAGGCGGUGCUG [JR_Ex3_Sub037] (Eterna round: R97, puzzle: Exclusion 3)”, for which the “apparent KD of MS2 coat protein” value (input ligand: FMN 200 uM) was found to be 68.4 nM and the “apparent KD of MS2 coat protein” value (input ligand: none) was 73.8 nM. The matching figures for “GGAUCAUAUGUCAGGAUAUGCUGGUCCUUGGAUCAGCAGAAGGGACAUGAGGAUCACCCAUGUCAUGAAGAUCC [Eli bmx4 4.79] (Eterna round: R97, puzzle: Brourd's mod of Exclusion 4)”: 203 nM and 28.3 nM. On to “UGCGGGCUUUUGAGACCUCACAUGAGGAUCACCCAUGUGCUUGUCUUGUGGGUCGGUCGGUCGUUGGCUGGCUGGCU [-29.6, -52.1 kcal, A 10%] (Eterna round: R97, puzzle: Sensor, turn-off variant 1)”, for which the “apparent KD of MS2 coat protein” value is, setting by setting: (input ligand: FMN 200 uM) 18 nM; (input ligand: none) 17.8 nM.

Take “GACUGGACAGGAUAUGUUCUUGAGCACUUGAGGAUCACCCAAGUCAUCAAGAACUCAGGCACAGAAGGGUUUAUGC [salish99_ex5_r4_011] (Eterna round: R97, puzzle: Exclusion 5)”: the “apparent KD of MS2 coat protein” value came out at 19.5 nM (input ligand: FMN 200 uM) and 13.7 nM (input ligand: none). As for “AAUCAUCAUGUAGGAUAUGCGUGGCGAAGCUAUGCAGAAGGACAUGAGGAUCACCCAUGUUCUUGCGUCUGCGUACAGAUGCAA [Mat - Exclusion NG 1 - Mod of JL - D72] (Eterna round: R96, puzzle: Exclusion NG 1)”, the “apparent KD of MS2 coat protein” value (input ligand: FMN 200 uM) came out at 135 nM, the “apparent KD of MS2 coat protein” value under setting [2] amounted to 67.7 nM and the “apparent KD of MS2 coat protein” value (input ligand: none) was found to be 72 nM. As to “AAGUCGACGGUGAGGAUAUUAGUUGAACGACAGAUUAAGAAGGUACAUGAGGAUCACCCAUGUGGGUAACGUUG [Brourd's EX4 #77] (Eterna round: R97, puzzle: Brourd's mod of Exclusion 4)”, the “apparent KD of MS2 coat protein” value runs as follows: (input ligand: FMN 200 uM) 76.3 nM; (input ligand: none) 107 nM.

Take “AAGUAUAGAGGAUAUAGUGAGUACUACAUGAGGAUCACCCAUGUUCUUCAAAACGUAUUUCUAGAAGGCUGUUAAA [EX-5 Malc#20] (puzzle: Exclusion 5)”: the “apparent KD of MS2 coat protein” value under setting [1] worked out at 43.5 nM. Regarding “AAUUAAUAUCAGGAUAUGACGUGCGAUAGCACGUCAGAAGGGAUGACAUGAGGAUCACCCAUGUGAUCAAUUAA [E6/1-A4] (Eterna round: R97, puzzle: Exclusion 6)”, the “apparent KD of MS2 coat protein” value was determined as 150 nM (input ligand: FMN 200 uM) and 33 nM (input ligand: none).
